Substitutions are numbered along the chain they refer to. Values joined by “and” are separate entries in the source; they are usually repeats but may differ in a detail not shown here. Identical values can stand only once. Like-named read-outs stand apart in the source and are kept apart here. One block for each binder: values may come before it.
Legend:
[1] = target: T1, Carbon-terminal polyhistidine-labeled recombinant cynomolgus monkey CD73 enzyme (cynomolgus monkey, UniProt A0A2K5V5U7 1-547); experiment: enzyme inhibition; left table
T1 chain: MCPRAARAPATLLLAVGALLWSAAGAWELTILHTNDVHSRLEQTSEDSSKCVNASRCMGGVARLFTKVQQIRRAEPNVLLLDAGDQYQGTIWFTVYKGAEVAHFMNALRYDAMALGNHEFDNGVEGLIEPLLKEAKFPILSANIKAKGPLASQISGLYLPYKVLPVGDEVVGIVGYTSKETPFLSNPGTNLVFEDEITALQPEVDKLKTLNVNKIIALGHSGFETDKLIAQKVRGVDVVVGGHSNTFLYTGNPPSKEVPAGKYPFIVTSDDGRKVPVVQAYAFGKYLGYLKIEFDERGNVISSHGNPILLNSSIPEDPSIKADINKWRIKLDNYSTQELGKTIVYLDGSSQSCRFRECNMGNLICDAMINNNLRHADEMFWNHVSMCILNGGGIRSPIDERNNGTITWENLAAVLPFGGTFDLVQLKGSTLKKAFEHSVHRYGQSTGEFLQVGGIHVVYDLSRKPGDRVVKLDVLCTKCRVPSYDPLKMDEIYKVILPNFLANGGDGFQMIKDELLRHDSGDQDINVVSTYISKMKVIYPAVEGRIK

[2] = target: T2, CD73 on the surface of human tumor cells (human, UniProt P21589 27-549); experiment: FACS; NCI-H1299 cells, left table
T2 chain: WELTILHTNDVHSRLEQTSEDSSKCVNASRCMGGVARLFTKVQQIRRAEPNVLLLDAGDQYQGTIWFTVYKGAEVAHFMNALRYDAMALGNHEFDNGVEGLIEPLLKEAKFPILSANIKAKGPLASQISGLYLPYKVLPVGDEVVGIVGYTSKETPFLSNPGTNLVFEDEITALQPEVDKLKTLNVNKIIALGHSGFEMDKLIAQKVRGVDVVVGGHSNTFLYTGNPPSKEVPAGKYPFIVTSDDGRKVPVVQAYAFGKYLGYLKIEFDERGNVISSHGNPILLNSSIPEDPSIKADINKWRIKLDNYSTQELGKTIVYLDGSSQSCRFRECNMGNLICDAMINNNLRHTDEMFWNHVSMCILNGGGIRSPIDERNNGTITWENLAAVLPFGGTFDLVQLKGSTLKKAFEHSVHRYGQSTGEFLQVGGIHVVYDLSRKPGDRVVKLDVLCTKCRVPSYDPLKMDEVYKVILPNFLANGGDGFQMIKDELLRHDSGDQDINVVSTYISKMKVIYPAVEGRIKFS

[3] = target: T2, CD73 on the surface of human tumor cells; experiment: FACS; MDA-MB-231 cells
[4] = target: T3, extracellular domain of human CD73 protein (CD73-ECD), C-terminus polyhistidine-tagged (UniProt P21589 27-547); experiment: enzyme inhibition; left table
T3 chain: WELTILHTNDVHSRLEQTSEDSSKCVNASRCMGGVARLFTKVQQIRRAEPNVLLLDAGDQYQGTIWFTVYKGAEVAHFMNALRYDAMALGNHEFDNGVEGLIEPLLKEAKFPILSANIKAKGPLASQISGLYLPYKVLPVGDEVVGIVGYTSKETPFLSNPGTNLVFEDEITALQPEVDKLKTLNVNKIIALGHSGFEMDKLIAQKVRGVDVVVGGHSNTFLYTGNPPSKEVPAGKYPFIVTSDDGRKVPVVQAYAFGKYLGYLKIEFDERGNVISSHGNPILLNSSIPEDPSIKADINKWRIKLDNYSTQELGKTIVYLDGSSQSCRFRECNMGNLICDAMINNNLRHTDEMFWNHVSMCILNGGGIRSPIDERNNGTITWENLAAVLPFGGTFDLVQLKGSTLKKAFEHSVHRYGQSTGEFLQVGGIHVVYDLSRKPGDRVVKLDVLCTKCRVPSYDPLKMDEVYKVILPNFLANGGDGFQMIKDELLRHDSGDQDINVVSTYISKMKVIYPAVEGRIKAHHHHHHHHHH

[5] = target: T2, CD73 on the surface of human tumor cells; experiment: FACS; NCI-H1299 cells, right table
[6] = target: T3, extracellular domain of human CD73 …; experiment: enzyme inhibition; right table
[7] = target: T2, CD73 on the surface of human tumor cells; experiment: FACS; MDA-MB-231 cells, right table
[8] = target: T1, Carbon-terminal polyhistidine-labeled …; experiment: enzyme inhibition; right table
[9] = target: T2, CD73 on the surface of human tumor cells; experiment: inhibition of cell-surface CD73 enzyme activity; right panel
[10] = target: T2, CD73 on the surface of human tumor cells; experiment: FACS; MDA-MB-231 cells, left table
[11] = target: T2, CD73 on the surface of human tumor cells; experiment: inhibition of cell-surface CD73 enzyme activity; left panel
[12] = target: T2, CD73 on the surface of human tumor cells; experiment: FACS; MDA-MB-231 cells, right table
[13] = target: T2, CD73 on the surface of human tumor cells; experiment: FACS; MDA-MB-231 cells, left table
[14] = target: T2, CD73 on the surface of human tumor cells; experiment: FACS; NCI-H1299 cells, left table
[15] = target: T3, extracellular domain of human CD73 …; experiment: ELISA
[16] = target: T3, extracellular domain of human CD73 …; experiment: ELISA
[17] = target: T2, CD73 on the surface of human tumor cells; experiment: FACS; NCI-H1299 cells, right table

IC50 [1]: 0.039 nM
EC50 [2]: 0.658 nM
EC50 [3]: 0.544 nM
IC50 [4]: 0.037 nM
EC50 [5]: 0.53 nM
IC50 [6]: 0.038 nM
EC50 [7]: 0.466 nM
IC50 [8]: 0.039 nM
IC50 [9]: 0.363 nM
EC50 [10]: 0.466 nM
IC50 [11]: 0.317 nM
B1: mAb002c (antibody, V domains shown)
VH: QVQLQQPGAELVKPGASVRLSCKASGYTLTSYWMHWVKKRPGQGLEWIGEINPSNGRSNYNEKFKSKATLTVDRSSSTVYMQLGSLTSEDSAVYYCARRGVSGNYFDYWGQGTTLTVSS
VL: DIKMTQSPSSMYASLGERVTMTCKASQDINTYLSWFQQKPGKSPKTLIYRSNILVDGVPSRFSGSRSGQDYYLTITSLEYEDMGIYYCLQYDEFPYTFGGGTKLELK

IC50 [1]: 0.04 nM
EC50 [12]: 0.618 nM
EC50 [3]: 1.19 nM
IC50 [4]: 0.03 nM
EC50 [13]: 0.45 nM
IC50 [6]: 0.02 nM
IC50 [8]: 0.04 nM
EC50 [14]: 1.48 nM
B2: mAb001c (antibody, V domains shown)
VH: QVQLQQSGPELVKPGASVRISCKTSGYTFTNYYIYWVKQRPGQGLEWIGWIYPGNLNIKYNEKFKGKSTLTADKSSSTAFMQLSSLTSEDSAVYFCARDDNYAWFAYWGQGTLVTVSS
VL: DIVMTQSHKFMSTSIGDRVSITCKASQDVSTAVAWYQQKPGQSPKLLIYWTNTRHTGVPDRFTGNTSGTEHTLTISSVQAEDLALYYCQQHYSTPFTFGSGTTLEIK

EC50 [15]: 0.099 nM and 0.054 nM
EC50 [16]: 0.073 nM
EC50 [14]: 1.62 nM
EC50 [17]: 1.65 nM
B3: mAb001c-VK-SGS (antibody, V domains shown)
VH: B2 VH
VL: B2 VL with N65S, T66G

From patent US20210024646A1 (published 2021)
